# Measurements as given in patent US20240358834A1 (University of Pennsylvania, published 2024).
# T1: human CD19 protein with a biotinylated AviTag (Acrobiosystems) (human, UniProt P15391 20-291, biotinylated AviTag)
# T1 construct: Captured on streptavidin-coated microplate wells; also called biotinylated-AviTag-CD19; hCD19; not shown: AviTag
# T1 sequence (looked up): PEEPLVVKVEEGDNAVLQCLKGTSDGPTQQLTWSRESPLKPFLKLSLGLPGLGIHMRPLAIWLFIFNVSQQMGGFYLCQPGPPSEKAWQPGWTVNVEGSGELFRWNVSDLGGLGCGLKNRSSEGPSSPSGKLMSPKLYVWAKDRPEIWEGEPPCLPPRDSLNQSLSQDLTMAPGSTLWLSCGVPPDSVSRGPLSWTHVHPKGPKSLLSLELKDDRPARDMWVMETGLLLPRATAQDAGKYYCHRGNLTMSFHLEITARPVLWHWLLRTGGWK
# B1: scFv 6 (scFv)
# scFv: QPVLTQPPSVSGSLGQRVTISCTGTNTNIGSGYSVQWYQQLPGESPKPIIYGSSNRPSGVPARFSGSKSGSTGTLTITGIQAEDEADYHCQSYDDSLDGHAVFGGGTQLTILGGGSSRSSSSGGGGSGGGGEVQLVQSGGDLVKPGGSLRLSCVASGFTFSDNYMSWIRQVPGKGLQWVSRISTDGRGTSYADAVKGRFTISRDNAKNTLYLQMNSLRDEDTAVYYCARRSGIWGFDYWGQGALVTVSSESPSPPNLTSGQAGQHHHHHHGAYPYDVPDYAS
# notes: Canine scFv (VL-linker-VH); also called scFv_06; P3-28
# B2: scFv 34 (scFv)
# scFv: SYELTQPPSVSAALGQRVTISCTGTNTNIGSGYSVQWYQQLPGESPKPIIYGSSNRPSGVPARFSGSKSGSTGTLTITGIQAEDEADYHCQSYDDSLDGHAVFGGGTQLTILGGGSSRSSSSGGGGSGGGGEVQLVESGGDLVKPGGSLRLSCVASGLTFSDNYMSWIRQVPGKGLQWVSRISTDGRGTSYADAVKGRFTISRDNAKNTLYLQMNSLRDEDTAVYYCARRSGIWGFDYWGQGTLVTVSSESPSPPNLTSGQAGQHHHHHHGAYPYDVPDYAS
# notes: Canine scFv (VL-linker-VH); also called P3-44
# B3: scFv 26 (scFv)
# scFv: SSVLTQPPSVSVSLGQTATISCSGESLSKYYTQWFQQKAGQAPILVIYKDTERPSGIPDRFSGSSSGNTHTLTISGARAEDEADYYCESLVDSDAYMFGSGTQLTVLGGGSSRSSSSGGGGSGGGGEVQLVETGGDLVKPGGSLRLSCVGSGFTFSSYWMSWVRQAPGKGLQWIADISDSGSSTDYADAVKGRFTISRDNAKNTLYLQMNSLRAEDTAMYYCARGLGMDYWGHGTSLFVSSASTTAPSVTSGQAGQHHHHHHGAYPYDVPDYAS
# notes: Canine scFv (VL-linker-VH); also called P3-03
# B4: scFv 28 (scFv)
# scFv: QSALTQPSSVSVSLGQTATISCSGESLNKYYVQWFQQKAGQVPILVIYRDTERPSGIPDRFSGSSSGNTHTLTITGTRAEDEADYYCESLVNDNTYVFGSGTQLTVLGGGSSRSSSSGGGGSGGGGEVQLVETGGDLVKPGGSLRLSCVGSGFTFSSYWMSWVRQAPGKGLQWIADISDSGSSTDYADAVKGRFTISRDNAKNTLYLQMNSLRAEDTAMYYCARGLGMDYWGHGTSLFVSSASTTAPSVTSGQAGQHHHHHHGAYPYDVPDYAS
# notes: Canine scFv (VL-linker-VH); also called P3-30
# B5: scFv 36 (scFv)
# scFv: QSVLTQPTSVSGSLGQRVTISCSGSTNNIGIVGASWYQQLPGKAPKLLVYSDGDRPSGVPDRFSGSNSGNSDTLTITGLQAEDEADYYCQSFDTTLDAYVFGSGTQLTVLGGGSSRSSSSGGGGSGGGGEEQLVEFGGGLVRPGGSLRLSCVASGFTFSSYGMTWVRQSPGKGLQWVATISDTGSTYYADTVKGRFSISRDNAKNTLYLQMNSLRADDTALYYCTKDLGVWGMDNWGPGTSLFVSSASTTAPSVTSGQAGQHHHHHHGAYPYDVPDYAS
# notes: Canine scFv (VL-linker-VH); also called P3-25
# B6: scFv 33 (scFv)
# scFv: DIVMTQTPLSLSVSPGEPASISCKASQSLLHSDGNTYLHWYLQKPGQSPQLLIYSVSNRFTGVSDRFSGSGSGTDFTLRISRVEADDTGVYYCGQGTHLPFTFGQGTKLEIKGGSSRSSSSGGGGSGGGGEVQLVESGGDLVKPGGSLRLSCAASGFTFSHYDMNWVRQAPGKGLQWVASIAYDGSNTYYTDAVKGRFTISRDNAKNILFLLVNSLRAEDTAIYYCARGLVYWGQGTLVTVSSASTTAPSVTSGQAGQHHHHHHGAYPYDVPDYAS
# notes: Canine scFv (VL-linker-VH); also called P3-07
# B7: scFv 3 (scFv)
# scFv: QSVLNQPPSVSGALGQTVTISCSGSHTNIGSGFDVQWYQQLPGKSPQTLVYANINRPSGVPARFSGSKSGSTATLTITGVQAEDEADYYCQSYDDNFDGHVFGSGTQLTVLGGGSSRSSSSGGGGSGGGGEVQLVQSGGDLVKPGGSLRLSCVASGFTFSNYTMSWVRQAPGQGLQWVAYINYDGSITYYAEAVKGRFTVSRDNAKNTLYLQMNSLRAEDTAVYFCVKETFMIPTEWGQGTLITVSSASTTAPSVTSGQAGQHHHHHHGAYPYDVPDYAS
# notes: Canine scFv (VL-linker-VH); also called scFv_03; P3-05
# B8: scFv 31 (scFv)
# scFv: QSALTQPSSVSVSLGQTATISCSGESLTKYYVQWFQQKAGQAPVLVIYRDTERPSGIPDRFSGSSSGNTHTLTISGARAEDEADYYCESMDGREAYVFGSGTQLTVLGGGSSRSSSSGGGGSGGGGEVQLVESGGDLVKPGGSLRLSCVASGFTFSSYWMSWVRQAPGKGLQWIADISDSGSSTDYADAVKGRFTISRDNAKNTLYLQMNSLRAEDTAMYYCARGLGMDYWGHGTSLFVSSASTTAPSVTSGQAGQHHHHHHGAYPYDVPDYAS
# notes: Canine scFv (VL-linker-VH); also called P4-09
# B9: scFv 29 (scFv)
# scFv: QSVLNQPPSVSVSLGQTATISCSGESLNKYYTQWFQQKAGQAPVLVIYKDTERPSGIPDRFSGSSSGNTHTLTISGARAEDEADYYCESVDSTDTYVFGSGTQLTILGGGSSRSSSSGGGGSGGGGEVHLVESGGDLVKPGGSLRLSCVGSGFTFSSYWMSWVRQAPGKGLQWIADISDSGSSTDYADAVKGRFTISRDNAKNTLYLQMNSLRAEDTAMYYCARGLGMDYWGHGTSLFVSSASTTAPSVTSGQAGQHHHHHHGAYPYDVPDYAS
# notes: Canine scFv (VL-linker-VH); also called P3-51
# B10: scFv 32 (scFv)
# scFv: QSVLTQPASVSVSLGQTATISCSGESLSKYYAQWFQQKAGQAPVLVIYKDTERPSGIPDRFSGSSSGNTHTLTITGIQAADEADYYCQSYDDNLDGYVFGSGTQLTVLGGGSSRSSSSGGGGSGGGGEVQLVESGGDLVKPGGSLRLSCVGSGFTFSSYWMSWVRQAPGKGLQWIADISDSGSSTDYADAVKGRFTISRDNAKNTLYLQMNSLRAEDTAMYYCARGLGMDYWGHGTSLFVSSASTTAPSVTSGQAGQHHHHHHGAYPYDVPDYAS
# notes: Canine scFv (VL-linker-VH); also called P4-11
# B11: scFv 30 (scFv)
# scFv: QSVLTQPASVSVSLGQTATISCSGESLSKYYTQWFQQKAGQAPVLVIYKDTERPSGIPDRFSGSSSGNTHTLTISGAQAEDEADYYCQSYDDNVDGYVFGSGTQLTVLGGGSSRSSSSGGGGSGGGGEVQLVESGGDLVKPGGSLRLSCVGSGFTFSSYWMSWVRQAPGKGLQWIADISDSGSSTDYADAVKGRFTISRDNAKNTLYLQMNSLRAEDTAMYYCARGLGMDYWGHGTSLFVSSASTTAPSVTSGQAGQHHHHHHGAYPYDVPDYAS
# notes: Canine scFv (VL-linker-VH); also called P4-02
# B12: scFv 27 (scFv)
# scFv: QPVLTQPPSVSVSLGQTATISCSGESLSKYYAQWFQQKAGQAPVLVIYKDTERPSGIPDRFSGSSSGNTHTLTITGIQAEDEGDYHCHSYDENLDGYVFGSGTQLTVLGGGSSRSSSSGGGGSGGGGEVQLVESGGDLVKPGGSLRLSCVGSGFTFSSYWMSWVRQAPGKGLQWIADISDSGSSTDYADAVKGRFTISRDNAKNTLYLQMNSLRAEDTAMYYCARGLGMDYWGHGTSLFVSSASTTAPSVTSGQAGQHHHHHHGAYPYDVPDYAS
# notes: Canine scFv (VL-linker-VH); also called P3-18
# B13: scFv 35 (scFv)
# scFv: SSVLTQPPSVSVSLGQTATISCSGESLSEYYAQWFQQKAGQAPVLVIYKDTERASGIPDRFSGSSSGNTHTLTISGARAEDEADYYCESAVNSDGIVFGGGTHLTVLGGGSSRSSSSGGGGSGGGGEVQLVESGGDLVKPAGSLRLSCVTSGFTFSSYAMSWVRQAPGKGLQWVGSINSGGSTTSYADAVKGRFTISRDNAKNTVYLQMNSLRAEDTAVYYCARWWDFEYWGQGTLVTVSSESPSPPNLTSGQAGQHHHHHHGAYPYDVPDYAS
# notes: Canine scFv (VL-linker-VH); also called P4-08
# Target: T1, human CD19 protein with a biotinylated …
# Experiment: phage ELISA, biotinylated AviTag CD19 on streptavidin wells; signal ratio to FMC63 standard
# Text: To identify unique human CD19-binding monoclonal scFv from the panned libraries, individual phage antibody clones were expanded, assessed for binding to CD19 by ELISA, and subjected to nucleotide sequencing to identify those clones that were unique. A total of 84 scFvs were randomly selected from the panned libraries (70 from P3 and 14 from P4).
row,Binder,ELISA hCD19 (ratio FMC63)
1,B1,0.47 ratio to FMC63
2,B2,0.73 ratio to FMC63
3,B3,0.65 ratio to FMC63
4,B4,0.33 ratio to FMC63
5,B5,0.6 ratio to FMC63
6,B6,0.43 ratio to FMC63
7,B7,0.32 ratio to FMC63
8,B8,0.35 ratio to FMC63
9,B9,0.83 ratio to FMC63
10,B10,0.2 ratio to FMC63
11,B11,0.22 ratio to FMC63
12,B12,0.35 ratio to FMC63
13,B13,0.23 ratio to FMC63
